Residue numbers refer to the chain shown, from its start. Names may count otherwise. Read-outs that look alike come from different tables or passages of the source. Blank lines part the entries; values can stand above or below the binder they belong to.
Assays:
[1] = target: T1, FcγRIa (human, UniProt P12314 16-292); assay: SPR (Biacore4000), kinetic analysis
T1 construct: extracellular domain; also called FcgRIa; FcgRI; not shown: His tag attached to the C terminus
Procedure: The variants described above were assessed for their binding to FcγR according to the method described in Reference Example 8.
Analysis of interaction between obj ective antibody and the FcγR was carried out using Biacore T100 (GE Healthcare), Biacore T200, Biacore A100, and Biacore 4000. HBS-EP+ (GE Healthcare) was used as the running buffer, and the measurement temperature was set to 25° C. Chips produced by immobilizing the antigen peptide by the amine coupling method to a Series S sensor Chip CM5 (GE Healthcare), chips produced by allowing preliminarily biotinylated antigen peptides to interact with and immobilize onto a Series S Sensor Chip SA (certified) (GE Healthcare), chips produced by immobilizing Protein L (ACTIGEN, BioVision) to Series S Sencor Chip CM5 (GE Healthcare), or chips produced by immobilizing Protein A/G (Thermo Scientific) to Series S Sencor Chip CM5 (GE Healthcare) were used. Antibodies of interest were captured onto these chips, and allowed to interact to each FcγR diluted with running buffer. To regenerate and repeatedly use the chip, the antibodies captured onto the chip were washed off by reacting 10 mM glycine-HCl, pH 1.5.

[2] = target: T2, FcγRIIIa extracellular domain with C-terminal His tag (human, UniProt P08637 17-208); assay: SPR (Biacore), ratio of KD values for FcγRIIIa
T2 construct: extracellular domain; also called FcgRIIIa; CD16A
T2 sequence (P08637 17-208): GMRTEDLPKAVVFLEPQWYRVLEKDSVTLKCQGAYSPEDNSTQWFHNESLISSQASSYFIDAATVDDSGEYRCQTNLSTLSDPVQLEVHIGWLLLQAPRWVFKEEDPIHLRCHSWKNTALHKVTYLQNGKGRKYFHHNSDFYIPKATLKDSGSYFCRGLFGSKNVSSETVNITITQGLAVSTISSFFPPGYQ

[3] = target: T2, FcγRIIIa extracellular domain with …; assay: SPR (Biacore), ratio of KD values for FcγRIIIa; remark: listed apart in the source
Procedure: (§1) To assess this hypothesis, GpH7-A53 (SEQ ID NO: 42) resulting from the introduction of S239D into GpH7-A5 was constructed, and, this is combined with GpH7-B78 introduced with S239D, A330L, and I332E, and the expression and preparation were performed according to the method described in Reference Example 1. The effect of the combination of S239D and S239D, A330L, and I332E was assessed by comparing the FcγRIIIa binding between the heterodimerized and homodimerized antibodies with S239D, A330L, and I332E according to the method described in Reference Example 2 (Table 14).
(§2) Analysis of interaction between objective antibody and the FcγR was carried out using Biacore T100 (GE Healthcare). HBS-EP+ (GE Healthcare) was used as the running buffer, and the measurement temperature was set to 25° C. Chips produced by immobilizing the antigen peptide by the amine coupling method to a Series S Sencor Chip CM5 (GE Healthcare), or alternatively, chips produced by allowing preliminarily biotinylated antigen peptides to interact with and immobilize onto a Series S Sensor Chip SA (certified) (GE Healthcare) were used. Antibodies of interest were captured onto an antigen peptide-immobilized chip, and allowed to interact to each FcγR diluted with running buffer. To regenerate and repeatedly use the chip, the antibodies captured on the chip were washed off by reacting 10 mM glycine-HCl, pH 1.5.

[4] = target: T2, FcγRIIIa extracellular domain with …; assay: SPR (Biacore), antibody captured, FcγRIIIa as analyte, 1:1 Langmuir kinetic fit
In short: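 Biacore T100 at 25° C in HBS-EP+; antibodies captured on antigen-peptide chips (amine-coupled CM5 or biotinylated peptide on SA), with FcγR in running buffer flowed over.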

[5] = target: T2, FcγRIIIa extracellular domain with …; assay: as above; remark: listed apart in the source
Procedure: as §1, §2
(§3) The FcγR-binding activity of each antibody was assessed primarily using as an indicator the FcγR-binding activity and dissociation constant for FcγR.

[6] = target: T2, FcγRIIIa extracellular domain with …; assay: SPR (Biacore), ratio of KD values for FcγRIIIa; remark: listed apart in the source
Excerpt: (§4) Then, GpH7-TA54 (SEQ ID NO: 46) resulting from the introduction of Y296W into GpH7-TA22 was constructed, and expressed and prepared in combination with GpH7-B78 according to the method described in Reference Example 1. Furthermore, GpH7-TA58 (SEQ ID NO: 45) resulting from the introduction of Y296W into GpH7-B78 was constructed, and expressed and prepared in combination with GpH7-TA22 according to the method described in Reference Example 1. To assess the effect of combination with Y296W, the prepared antibodies were compared for the FcγRIIIa-binding activity according to the method described in Reference Example 2 (Table 17).
as §2

[7] = target: T2, FcγRIIIa extracellular domain with …; assay: SPR (Biacore), antibody captured, FcγRIIIa as analyte, 1:1 Langmuir kinetic fit; remark: listed apart in the source
Excerpt: as §4, §2, §3

[8] = target: T2, FcγRIIIa extracellular domain with …; assay: SPR (Biacore), ratio of KD values for FcγRIIIa; remark: listed apart in the source
Excerpt: (§5) First, it was considered which H chain should be introduced with Y296W. GpH7-TA52 (SEQ ID NO: 44) resulting from the introduction of the mutation Y296W into GpH7-TA7 was constructed, and expressed and prepared in combination with GpH7-B78 according to the method described in Reference Example 1. Furthermore, GpH7-TA58 (SEQ ID NO: 45) resulting from the introduction of Y296W into GpH7-B78 was constructed, and expressed and prepared in combination with GpH7-TA22 according to the method described in Reference Example 1. To assess the effects of combinations with Y296W, the prepared antibodies were compared for the FcγRIIIa-binding activity according to the method described in Reference Example 2 (Table 16).
as §2

[9] = target: T2, FcγRIIIa extracellular domain with …; assay: SPR (Biacore), antibody captured, FcγRIIIa as analyte, 1:1 Langmuir kinetic fit; remark: listed apart in the source
Excerpt: as §5, §2, §3

T1 sequence (P12314 16-292): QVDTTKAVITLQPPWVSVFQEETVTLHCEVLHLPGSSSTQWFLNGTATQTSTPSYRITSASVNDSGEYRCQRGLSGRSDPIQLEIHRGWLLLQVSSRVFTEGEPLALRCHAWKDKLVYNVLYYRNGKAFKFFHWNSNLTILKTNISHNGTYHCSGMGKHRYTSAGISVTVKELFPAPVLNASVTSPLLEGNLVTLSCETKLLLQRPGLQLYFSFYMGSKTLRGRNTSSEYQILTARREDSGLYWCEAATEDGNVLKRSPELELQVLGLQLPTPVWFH

KD ratio (KD of GpH7-TA22/GpH7-B78/GpL16-k0 divided by KD of the antibody) [6]: 10 fold
Kd [7]: 1.3 nM
B4: GpH7-TA22/GpH7-TA58/GpL16-k0 (antibody, human IgG1, kappa)
heavy 1: QVQLVQSGAEVKKPGASVTVSCKASGYTFTDYEMHWIRQPPGEGLEWIGAIDPKTGDTAYSESFQDRVTLTADKSTSTAYMELSSLTSEDTAVYYCTRFYSYTYWGQGTLVTVSSASTKGPSVFPLAPSSKSTSGGTAALGCLVKDYFPEPVTVSWNSGALTSGVHTFPAVLQSSGLYSLSSVVTVPSSSLGTQTYICNVNHKPSNTKVDKKVEPKSCDKTHTCPPCPAPEYLWGPDVFLFPPKPKDTLMISRTPEVTCVVVDVSHEDPEVKFNWYVDGVEVHNAKTKPREEQYNATYRVVSVLTVLHQDWLNGKEYKCKVSNKALPAPIEKTISKAKGQPREPQVYTLPPSRKELTKNQVSLTCLVKGFYPSDIAVEWESNGQPENNYKTTPPVLDSDGSFFLYSKLTVDKSRWQQGNVFSCSVMHEALHNRYTQKSLSLSP
heavy 2: B4 heavy 1 with Y232L, W234G, Y294W, A296S, A328L, I330E, K354D, R433H, K437E
light: DIVMTQSPLSLPVTPGEPASISCQASESLVHSNRNTYLHWYLQKPGQSPQLLIYKVSNRFSGVPDRFSGSGSGTDFTLKISRVEAEDVGVYYCSQNTHVPPTFGQGTKVEIERTVAAPSVFIFPPSDEQLKSGTASVVCLLNNFYPREAKVQWKVDNALQSGNSQESVTEQDSKDSTYSLSSTLTLSKADYEKHKVYACEVTHQGLSSPVTKSFNRGEC
notes: Heterodimerized anti-glypican-3 IgG1 variant

KD ratio (KD of GpH7-TA7/GpH7-B78/GpL16-k0 divided by KD of the antibody) [8]: 1.2 fold
Kd [9]: 3.3 nM
B5: GpH7-TA7/GpH7-TA58/GpL16-k0 (antibody, human IgG1, kappa)
heavy 1: B4 heavy 1 with D237S
heavy 2: B4 heavy 1 with Y232L, W234G, Y294W, A296S, A328L, I330E, K354D, R433H, K437E
light: B4 light
notes: as for B4

KD ratio (KD of GpH7-TA22/GpH7-B78/GpL16-k0 divided by KD of the antibody) [6]: 1.3 fold
Kd [7]: 1 nM
B6: GpH7-TA54/GpH7-B78/GpL16-k0 (antibody, human IgG1, kappa)
heavy 1: B4 heavy 1 with Y294W
heavy 2: B4 heavy 1 with Y232L, W234G, A296S, A328L, I330E, K354D, R433H, K437E
light: B4 light
notes: as for B4

KD ratio (KD of GpH7-TA7/GpH7-B78/GpL16-k0 divided by KD of the antibody) [8]: 1.8 fold
Kd [9]: 2.3 nM
B8: GpH7-TA52/GpH7-B78/GpL16-k0 (antibody, human IgG1, kappa)
heavy 1: B4 heavy 1 with D237S, Y294W
heavy 2: B4 heavy 1 with Y232L, W234G, A296S, A328L, I330E, K354D, R433H, K437E
light: B4 light
notes: as for B4

Further lines, the binder ahead of its results:

B1: H240-Kn120/H240-Hl073/L73-k0 (antibody, human IgG1, kappa)
heavy 1: QDQLVQSGAEVKKPGASVKVSCKASGFNIKDTYIQWVRQAPGQGLEWMGRIDPLRKQTKYREKFEGRVTITADTSTNTAYMELSSLRSEDTAVYYCVRSGREFDYWGQGTLVTVSSASTKGPSVFPLAPSSKSTSGGTAALGCLVKDYFPEPVTVSWNSGALTSGVHTFPAVLQSSGLYSLSSVVTVPSSSLGTQTYICNVNHKPSNTKVDKKVEPKSCDKTHTCPPCPAPEYYWGPMVFLFPPKPKDTLMISRTPEVTCVVVDVSDEDPEVKFNWYVDGVEVHNAKTKPREEQYNATYRVVSVLTVLHQDWLNGKEYKCKVSNKDLPAPIEKTISKAKGQPREPQVCTLPPSRDELTKNQVSLWCLVKGFYPSDIAVEWESNGQPENNYKTTPPVLDSDGSFFLYSKLTVDKSRWQQGNVFSCSVMHEALHNHYTQKSLSLSP
heavy 2: QDQLVQSGAEVKKPGASVKVSCKASGFNIKDTYIQWVRQAPGQGLEWMGRIDPLRKQTKYREKFEGRVTITADTSTNTAYMELSSLRSEDTAVYYCVRSGREFDYWGQGTLVTVSSASTKGPSVFPLAPSSKSTSGGTAALGCLVKDYFPEPVTVSWNSGALTSGVHTFPAVLQSSGLYSLSSVVTVPSSSLGTQTYICNVNHKPSNTKVDKKVEPKSCDKTHTCPPCPAPELLSGPSVFLFPPKPKDTLMISRTPEVTCVVVDVSHEEPEVKFNWYVDGVEVHNAKTKPREEQYNSTYRVVSVLTVLHQDWLNGKEYKCKVSNDALPKPIEETISKAKGQPREPQVYTLPPSRCELTKNQVSLSCAVKGFYPSDIAVEWESNGQPENNYKTTPPVLDSDGSFFLVSKLTVDKSRWQQGNVFSCSVMHEALHNHYTQKSLSLSP
light: DIQMTQSPSSLSASVGDRVTITCRASQDIHKYIAWYQQKPGQAPRLLIQYTSTLQPGVPSRFSGSGSGTDYTFTISSLQPEDIATYYCLQYEQLRTFGGGTKVEIKRTVAAPSVFIFPPSDEQLKSGTASVVCLLNNFYPREAKVQWKVDNALQSGNSQESVTEQDSKDSTYSLSSTLTLSKADYEKHKVYACEVTHQGLSSPVTKSFNRGEC
notes: G236S in H240-Hl068
koff [1]: < 5e-05 s⁻¹

B2: GpH7-A5/GpH7-B78/GpL16-k0 (antibody, human IgG1, kappa)
heavy 1: not shown
heavy 2: B4 heavy 1 with Y232L, W234G, A296S, A328L, I330E, K354D, R433H, K437E
light: B4 light
notes: as for B4
KD ratio 1 (KD of GpH7-G1d/GpL16-k0 divided by KD of the antibody) [2]: 23 fold
KD ratio 2 (KD of GpH7-A5/GpH7-B3/GpL16-k0 divided by KD of the antibody) [2]: 30 fold
KD ratio (KD of GpH7-A5/GpH7-B78/GpL16-k0 divided by KD of the antibody) [3]: 1 fold
Kd [4]: 54 nM
Kd [5]: 54 nM

B3: GpH7-A57/GpH7-B78/GpL16-k0 (antibody, human IgG1, kappa)
heavy 1: B4 heavy 1 with Y232L, W234G, A296S, A328L, I330E
heavy 2: B4 heavy 1 with Y232L, W234G, A296S, A328L, I330E, K354D, R433H, K437E
light: B4 light
notes: the chains differ only in D356K/H435R against K439E
KD ratio 1 (KD of GpH7-G1d/GpL16-k0 divided by KD of the antibody) [2]: 199 fold
KD ratio 2 (KD of GpH7-A5/GpH7-B3/GpL16-k0 divided by KD of the antibody) [2]: 263 fold
KD ratio (KD of GpH7-A5/GpH7-B78/GpL16-k0 divided by KD of the antibody) [3]: 8.7 fold
Kd [4]: 6.2 nM
Kd [5]: 6.2 nM

B7: GpH7-A53/GpH7-B78/GpL16-k0 (antibody, human IgG1, kappa)
heavy 1: B4 heavy 1 with Y232L, W234G, A296S
heavy 2: B4 heavy 1 with Y232L, W234G, A296S, A328L, I330E, K354D, R433H, K437E
light: B4 light
notes: as for B4
KD ratio (KD of GpH7-A5/GpH7-B78/GpL16-k0 divided by KD of the antibody) [3]: 4.9 fold
Kd [5]: 11 nM

Reference: US20180155451A1 (published 2018)
